# Test results taken from patent publication US20220195388A1.
# How the values were obtained:
# [1] = target: CD3 (TCR/CD3 complex) on the surface of Jurkat cells, PBMCs and T responder cells (UniProt P07766); assay: flow cytometry, second staining with PE-labeled OKT3 Fab-multimers of PBMCs that had been stained, treated with D-biotin and washed (control); live cells
# [2] = target: CD3 (TCR/CD3 complex) on the surface of Jurkat cells, PBMCs and T responder cells (UniProt P07766); assay: flow cytometry, freshly isolated PBMCs stained with PE-labeled OKT3 Fab-multimers, before D-biotin; only live (PI negative) cells shown
# [3] = target: CD3 (TCR/CD3 complex) on the surface of Jurkat cells, PBMCs and T responder cells (UniProt P07766); assay: flow cytometry, PBMCs stained with PE-labeled OKT3 Fab-multimers and then treated with D-biotin, which disrupts the Fab to Strep-Tactin bond; remaining PE signal on live cells
# [4] = target: CD28 on the surface of PBMCs and T cells (human) (UniProt P10747); assay: flow cytometry, CD28+ cells isolated by Fab-multimer magnetic selection, released with D-biotin, washed and stained again with CD28 Fab-multimers; live CD3+ cells
# [5] = target: CD28 on the surface of PBMCs and T cells (human) (UniProt P10747); assay: flow cytometry, freshly isolated PBMCs before selection stained with fluorescent αCD28 Fab-multimers; only live (PI negative) CD3+ cells shown
# [6] = target: CD28 on the surface of PBMCs and T cells (human) (UniProt P10747); assay: flow cytometry, selected CD28+ cells after D-biotin and washing, stained with an α-Ig kappa light chain mAb to detect remaining Fab monomers; live CD3+ cells. The same mAb on cells before selection (negative control, no Fab) gives 2.73 in the gate.
# Chain of CD3 (TCR/CD3 complex) on the surface of Jurkat cells, PBMCs and T responder cells (P07766 23-207, one chain of several): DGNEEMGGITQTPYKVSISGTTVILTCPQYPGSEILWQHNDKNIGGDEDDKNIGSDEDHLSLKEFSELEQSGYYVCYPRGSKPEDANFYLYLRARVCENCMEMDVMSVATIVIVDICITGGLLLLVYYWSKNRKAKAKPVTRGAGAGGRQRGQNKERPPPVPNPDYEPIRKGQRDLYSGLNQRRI
substance,measurement,setting,value
OKT3 Fab fragments multimerized with Strep-Tactin,percentage of cells within gate,[1],64.7%
same,percentage of cells within gate,[2],64.5%
same,percentage of cells within gate,[3],0.005%
anti-CD28 Fab fragments (from CD28.3) multimerized with Strep-Tactin (from UniProt P22629 38-163),percentage of cells within gate,[4],96.7%
same,percentage of cells within gate,[5],77.9%
"αCD28 Fab fragment derived from the monoclonal anti-human CD28 antibody CD28.3, heavy chain C-terminally fused to the Twin-Strep-tag (monomeric)",percentage of cells within gate,[6],5.91%
